Laboratory results reported in patent publication US20170275639A1.

Molecular target: WNV (strain New York 1999), infectious virus (West Nile virus, strain New York 1999) (UniProt Q9Q6P4)
Assay: cell-based or functional assay

EC50, focus reduction neutralization assay (Vero cells): 3 ng/mL
Substance: Tetra pHu-E16 (tetravalent molecule assembled from pHu-E16scFv-CH^1-3 and pHu-E16scFv-CL) (antibody)
